The target of the experiment is T1, recombinant extracellular domain of IFNAR1 (ECD-IFNAR1) (UniProt P17181 28-436, RED-tris-NTA 2nd Generation dye on the His-tag (MST only)).
T1 construct: signal peptide in the construct; extracellular domain of IFNAR1, residues 1-436 as printed; the secreted product lacks the signal peptide; source: bought: Sino Biological (13222-H08H)
T1 sequence: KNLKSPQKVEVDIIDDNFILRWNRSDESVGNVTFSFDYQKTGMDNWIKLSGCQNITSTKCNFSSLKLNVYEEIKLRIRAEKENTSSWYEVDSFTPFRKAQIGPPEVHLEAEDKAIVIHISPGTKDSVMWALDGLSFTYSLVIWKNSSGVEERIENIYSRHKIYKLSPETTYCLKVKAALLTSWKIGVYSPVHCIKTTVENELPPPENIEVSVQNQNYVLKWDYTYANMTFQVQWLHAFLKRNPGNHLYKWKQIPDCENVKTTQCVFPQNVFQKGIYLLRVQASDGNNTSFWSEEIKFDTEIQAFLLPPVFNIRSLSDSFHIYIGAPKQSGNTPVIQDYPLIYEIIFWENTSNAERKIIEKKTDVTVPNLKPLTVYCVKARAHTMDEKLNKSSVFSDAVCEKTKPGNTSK
Briefly: MST; His-tagged ECD-IFNAR1 labelled with RED-tris-NTA 2nd Generation dye for 30 min, mixed with serially diluted LRPAP1 peptides; Monolith NT.115 capillaries; S/N above 5.0 taken as valid binding. The settings on record: both partners purified.

B1: RAPD1P1, peptide from the N-terminal of LRPAP1 (residues 35-53) (peptide)
peptide: YSREKNQPKPSPKRESGEE
notes: LRPAP1 residues 35-53; also called PAPD1P1; source: synthetic peptide (GenScript Biotech, purity 95%)
For B1, the Kd was 11.3 nM.
